The values that follow come from the supplement of paper PMC10724198.

± gives the standard deviation of the averaged measurements.
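Also: PSI is a weighted mean of sequencing reads over stability bins, variants kept only with over 10 reads, mCherry proximal and sfGFP distal, peptide attached via GGGS linker.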

The test system of this data set is Saccharomyces cerevisiae. The data set is described as follows: protein stability index of tFT-peptide fusion (C-terminal peptide) (PSI (0-1 scale)); higher = more stable (slower turnover). The following applies: genetic background: wild type; temperature: 30 C.
As to KTFPPVTLDFSS, the protein stability index was 0.609 ± 0.013. KTINKEQKKKEM displayed a protein stability index of 0.7 ± 0.036. For KTKERARTISRV the value was 0.721 ± 0.024; for KTKKPIILDTSN, 0.6406 ± 0.0047; for KTKKYIQKNKKR, 0.773 ± 0.012. For KTNNQVDTSVKD the value was 0.645 ± 0.054; for KTNNYPDNNPPG, 0.611 ± 0.016; for KTRHMQGNRVDS, 0.603 ± 0.045. For KTRPVCKVSCKL the value was 0.77 ± 0.092. Turning to KTRRHDQKMEKI, the protein stability index came to 0.659 ± 0.026. With KTSQYKPREKID the figure was 0.736 ± 0.04.

The sequence KTTETVLRKRTK came in with a protein stability index of 0.737 ± 0.049.

Consider KTTKEKESQEKN, for which the protein stability index amounted to 0.723 ± 0.029. For KTYKNKTQQNAS the value was 0.746 ± 0.045; for KVGWGMRGVRGG, 0.66 ± 0.015; for KVHVILTGKYEI, 0.7012 ± 0.0025. As to KVREGEARKEST, the protein stability index stood at 0.6826 ± 0.0017. For KVSKHIKTNDSI the value was 0.65 ± 0.02; for KWCQSNNIVKRT, 0.7 ± 0.011; for KYFCSLAFFLFA, 0.502 ± 0.0073.

Sequence KYINSASLIVYY had a protein stability index of 0.693 ± 0.06. With LAAGPSERTART the figure was 0.685 ± 0.052; with LACMWICPHIQA, 0.606 ± 0.023. In turn, LADLLRCSYSLS yielded a protein stability index of 0.677 ± 0.046. For LAGRARLVMCPR the value was 0.639 ± 0.0068; for LAGVSTPLPPPP, 0.696 ± 0.029; for LAHAGSRPPTPG, 0.6754 ± 0.0016.

LALHPPPRVPPT displayed a protein stability index of 0.701 ± 0.036. The sequence LANVGLDVSRIS registered a protein stability index of 0.696 ± 0.012. With LAPPLILLPFVD the figure was 0.699 ± 0.033; with LAPPPAAPRFCL, 0.652 ± 0.008; with LAPPYPSSASSH, 0.688 ± 0.022. With LAQLPPSLRFPP the figure was 0.72 ± 0.1; with LARLPPPSLSRV, 0.713 ± 0.055.

In turn, LASTMTIMLPGC showed a protein stability index of 0.703 ± 0.15. With LASVLRESRIST the figure was 0.671 ± 0.0078; with LATDVGHRLLGI, 0.707 ± 0.042. In turn, LAVWSVVGGGVV displayed a protein stability index of 0.637 ± 0.008. For LAWLGLHERTLF the value was 0.685 ± 0.0077; for LAYIFTPVRTTG, 0.799 ± 0.26; for LCCLSSLAMLFF, 0.7 ± 0.12. For LCLIGQPQTRVS the value was 0.695 ± 0.17; for LCLTLPSDSSAP, 0.841 ± 0.073; for LCRRGGRSACGS, 0.7019 ± 0.0067.

Turning to LCSGRGGRVCGG, the protein stability index was determined as 0.669 ± 0.038.

In the case of LCVRFFGVKWAF, the protein stability index came out at 0.594 ± 0.0095.

LCWQALSLGVMC yielded a protein stability index of 0.526 ± 0.023. For LDAFYVNVGLFG the value was 0.732 ± 0.045; for LDGLLVCSNWPA, 0.805 ± 0.07. For LDHFGASYCPRG the value was 0.706 ± 0.027.

As to LDPGPLVRTPRL, the protein stability index was 0.692 ± 0.076. Take LDPHPFRGHACC: the protein stability index is 0.779 ± 0.3. With LDPPCPTARLPH the figure was 0.61 ± 0.052; with LDSMSRPGATVS, 0.668 ± 0.051; with LDVAFLMSRFSS, 0.731 ± 0.024. Regarding LDVGYVLGLERS, the protein stability index is 0.681 ± 0.033. For LEGGWRVGGGRL the value was 0.683 ± 0.015; for LEGYFMLPRSAW, 0.736 ± 0.065; for LENIHVLETIFT, 0.6022 ± 0.0054. For LERCKSLDSIVL the value was 0.701 ± 0.071. Sequence LESLWEAIRTLF yielded a protein stability index of 0.5136 ± 0.005.

In the case of LFAKVVSGYDLG, the protein stability index worked out at 0.711 ± 0.024. For LFALRLLSREGI, the protein stability index was found to be 0.604 ± 0.046.

As to LFDGPFPHLFPT, the protein stability index was found to be 0.718 ± 0.091. For LFELVRTCDRCV the value was 0.7 ± 0.03; for LFFLLPSSPIGF, 0.705 ± 0.011; for LFFLPSSSLSPL, 0.731 ± 0.022. On to LFFRFGRWFLGF, for which the protein stability index was found to be 0.671 ± 0.027. With LFGHMENNLLKS the figure was 0.722 ± 0.046; with LFGQTVLLSAGT, 0.713 ± 0.018; with LFHFLSPVALPS, 0.6649 ± 0.0041. With LFITTSLFRPFA the figure was 0.53 ± 0.015; with LFLPDPHSLTFH, 0.744 ± 0.044.

As to LFLSLFLFPSLS, the protein stability index was 0.57 ± 0.03. With LFLYPFCVGGFL the figure was 0.714 ± 0.016.

In the case of LFPLHLPSPPPG, the protein stability index is 0.7207 ± 0.0018. For LFPLISPLQSER the value was 0.737 ± 0.026; for LFPVTSLFPPLP, 0.706 ± 0.012. As to LFSSSLISPLFA, the protein stability index is 0.582 ± 0.025. For LFTLFPPFFYSR the value was 0.681 ± 0.0079.
